Data set [1] has as its target T1, Lck SH2 domain (Homo sapiens, UniProt P06239).
T1 construct: made in house
Description: Competition assay with dapoxyl-labeled sensor peptide A for Kd at the Lck SH2 domain. The class given is binding. As for the experimental part:
By contrast, the difference in affinity between 5 (43±10 μM) and 6 is somewhat more modest. The caged derivative 4 is converted to the high affinity form 6 upon photolysis. Longer photolysis times generate larger yields of the active peptide 6 (see “Experimental procedures” section below). The latter provides a straightforward means to deliver desired quantities of the active species.
The competition assay schematically illustrated in FIG. 7 was employed to determine Kds for peptides 4, 5, and 6. Experiments were conducted using 3 μM peptide A, 20 μM DTT, 5 μM GST-Lck-SH2 (in 10% glycerol), and 33.3 mM of Tris buffer (pH 7.5) in a total assay volume of 150 μL. The fluorescence of the solution was monitored on a Photon Technology QM-1 spectrofluorimeter at 30° C. at λex=395 nm and λem=535 nm. The fluorescence of the peptide A solution was measured in the presence of variable concentrations of peptides 4, 5, or 6. Control assays in the absence of GST-Lck-SH2 were also performed at the same concentrations. The following Kdx values were obtained: peptide 4 (127±6 μM), peptide 5 (43±10 μM), and peptide 6 (2.6±0.2).
and [St]=total [A], Fx=fluorescence at a given concentration of peptide X (i.e. 4, 5, or 6), Fmax=fluorescence in the absence of peptide X, F0=fluorescence in the absence of Lck-SH2 domain, Kd=binding constant of A/Lck-SH2 domain, [Pt]=total [Lck-SH2], [P]=uncomplexed [Lck-SH2], [Xt]=total [4, 5, or 6], [PX]=[4, 5, or 6/Lck-SH2 complex], [SP]=[A/Lck-SH2 complex], Kdx=dissociation constant of peptide 4, 5, or 6/Lck-SH2 domain complex.

In data set [2] the target is T1, Lck SH2 domain. Description: Photolysis of caged peptide 4, read out by displacement of sensor A from the Lck SH2 domain. The class given is binding. As for the experimental part: Experiments were conducted using 3 μM peptide A, 20 μM DTT, 5 μM GST-Lck-SH2 (in 10% glycerol), peptide 4 (32 μM) in 33.3 mM Tris buffer (pH 7.5) and a total assay volume 150 μL. The fluorescence of the solution was monitored on a Photon Technology QM-1 spectrofluorimeter at 30° C. at λex=395 nm and λem=535 nm. Caged peptide (4) was irradiated using an Oriel Mercury Arc Lamp (Model 69907) equipped with a 360 nm colored glass filter (300-400 nm band pass) and an IR filter for various time periods (0-30 min).
An aliquot from each irradiation time period was added to the assay solution. A decrease in fluorescence intensity is indicative of displacement of the SH2 domain sensor A from the SH2 domain by uncaged peptide (6) (see FIGS. 7 and 8). An analogous set of experiments was performed with peptide 5. The formation of uncaged peptide 6 from caged peptides 4 and 5 was confirmed by analytical HPLC (comparison with the retention time of peptide 6 prepared by solid phase peptide synthesis) and by mass spectrometry.

Data set [3] concerns the target T2, α-chymotrypsin (Bos taurus, UniProt P00766).
T2 construct: purchased Fisher or Aldrich (general materials statement only)
Description: Chymotrypsin continuous fluorescence substrate assay. In kind it is biochemical. As for the experimental part:
The peptide 9 stock solution contained 5% DMSO and the assay solution contained less than 1% DMSO. The reaction was monitored on a Photon Technology QM-1 spectrofluorimeter at 30° C. using a λex=380 nm and a λem=460 nm.
Assays were conducted using 25 μM light exposed caged peptide 10 in 50 mM Tris buffer (pH 8.0), and 100 mM NaCl, 5 mM CaCl2, and 0.01% Tween-20 to which α-chymotrypsin was added to initiate the reaction. The fluorescence of the solution was monitored on a Photon Technology QM-1 spectrofluorimeter at 30° C. at λex=380 nm and λem=460 nm. Caged peptide 10 was irradiated using an Oriel Mercury Arc Lamp (Model 69907) equipped with a 360 nm colored glass filter (300-400 nm band pass) and an IR filter for various time periods (0, 5, 10, 15, and 20 min).

In data set [4] the target is GST-Lck-SH2 (UniProt P06239). Description: fluorescence of dapoxyl peptide A with Lck SH2 domain.
Sequence of GST-Lck-SH2 (P06239 127-224 limits assumed): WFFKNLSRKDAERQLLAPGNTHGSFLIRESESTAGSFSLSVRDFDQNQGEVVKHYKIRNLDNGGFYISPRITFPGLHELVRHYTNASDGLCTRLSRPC
In data set [5] the target is GST-Lck-SH2 (UniProt P06239). Description: fluorescence, 3 µM peptide A with 5 µM GST-Lck-SH2 and 32 µM unphotolysed peptide 4, t=0 min.
In data set [6] the target is T3, cAMP-dependent protein kinase (PKA) catalytic subunit (Homo sapiens, UniProt P17612).
T3 construct: made in house
Description: PKA [γ-33P]ATP radioactive phosphorylation assay. In kind it is biochemical. The procedure:
PKA assays were performed in triplicate. 20 μL of a 30 μM solution of 12, which had been photolyzed for different time periods (5, 10, 15, 20, 25, 30 min), was added to each well of 96 multi-well assay plate containing 20 μL assay buffer [100 mM MOPS, 150 mM KCl, 12.5 mM MgCl2 and 150 μM cold ATP supplemented with 70-163 μCi/well [γ^−33P]ATP for radioactive detection]. 10 μL enzyme diluted buffer containing 100 mM MOPS (pH 7.1), 0.125 mg/mL bovine serum albumin, and 8 nM PKA catalytic subunit were added to initiate the reaction. Total reaction volume was 50 μL. After a 12-min incubation time at 30° C., 100 μL of 6% phosphoric acid was added to each well to stop the reaction (total volume: 150 μL). Following an additional 5 min incubation period at ambient temperature, 75 μL from each reaction well was transferred into each well of a Unifilter (P81 cellulose phosphate paper) assay plate. Each well was washed four times with 0.1% phosphoric acid in water. Scintillation solution was added to each well and ^33P-incorporation measured by scintillation counting with a MicroBeta™ TriLux & MicroBeta JET (Perkin Elmer). The formation of the photouncaged peptide was confirmed by ESI mass spectrometry.
Assays were performed as described above, except that the enzymatic reaction was stopped at different time points (2, 4, 6, 8, 10, 12, 14 min) by adding 6% phosphoric acid.

In data set [7] the test system is H2N-Leu-Arg-Arg-Ala-N(DMNB)Ser-Leu-Gly-NH2 (12).
The subject of data set [8] is H2N-Leu-Arg-Arg-Ala-Ser-Leu-Gly-NH2 (11).
Data set [9] concerns Ac-Gly-Gly-Gly-N(DMNB)Phe-coumarin (10).
Data set [10] deals with Ac-Gly-Gly-Gly-Phe-coumarin (9).
Where [11] appears, read: 10 nM α-chymotrypsin, Tris pH 8.0, 30° C.

“Also recorded” adds a separate entry of the source. *1 amine or outer side, *2 acyl side, *3 side chain or, on linkers, in order; H or OH if unused. Where a SMILES comes first, the peptide text is derived from it. [ ]: non-standard residue; d: D form. The star is where a group is joined. X2 = COc1cc(CN([C@@H](Cc2ccc(OP(=O)(O)O)cc2)C(=O)[*:2])[*:1])c([N+](=O)[O-])cc1OC; Gly(N-Dmnb) = COc1cc(CNCC(=O)O)c([N+](=O)[O-])cc1OC; X1 = CN(C)c1ccc(-c2cnc(-c3ccc(S(=O)(=O)*)cc3)o2)cc1; pY = N[C@@H](Cc1ccc(OP(=O)(O)O)cc1)C(=O)O; coumarin = not defined here; Dab = NCC[C@H](N)C(=O)O

T1 sequence (P06239 127-224 limits assumed): as above

The compound `CC[C@H](C)[C@H](NC(=O)[C@H](CCC(=O)O)NC(=O)CN(Cc1cc(OC)c(OC)cc1[N+](=O)[O-])C(=O)[C@H](Cc1ccc(OP(=O)(O)O)cc1)NC(C)=O)C(=O)N[C@@H](CCNC(C)=O)C(=O)N[C@@H](C)C(N)=O` [peptide 4, Ac-pTyr-N(DMNB)Gly-Glu-Ile-Dab(Ac)-Ala-NH2] (Ac-[pY][Gly(N-Dmnb)]EI[Dab](Ac)A-NH2) returned a Kd in data set [1] of 127 ± 6 µM. Further, in [2] (irradiation 0-30 min, 300-400 nm band pass, 32 μM peptide 4), the “effect of photolysis of the caged peptide in the competition assay” value was “complete displacement of A from the Lck SH2 domain”.

In [1], `CC[C@H](C)[C@H](NC(=O)[C@H](CCC(=O)O)NC(=O)CNC(=O)[C@H](Cc1ccc(OP(=O)(O)O)cc1)N(Cc1cc(OC)c(OC)cc1[N+](=O)[O-])C(C)=O)C(=O)N[C@@H](CCNC(C)=O)C(=O)N[C@@H](C)C(N)=O` [peptide 5, Ac-N(DMNB)pTyr-Gly-Glu-Ile-Dab(Ac)-Ala-NH2] (Ac-[X2]GEI[Dab](Ac)A-NH2) returned a Kd of 43 ± 10 µM.

On to `CC[C@H](C)[C@H](NC(=O)[C@H](CCC(=O)O)NC(=O)CNC(=O)[C@H](Cc1ccc(OP(=O)(O)O)cc1)NC(C)=O)C(=O)N[C@@H](CCNC(C)=O)C(=O)N[C@@H](C)C(N)=O` [peptide 6, Ac-pTyr-Gly-Glu-Ile-Dab(Ac)-Ala-NH2] (Ac-[pY]GEI[Dab](Ac)A-NH2), for which, in [1], binding was put at a Kd of 2.6 ± 0.2 µM.

Take `CC[C@H](C)[C@H](NC(=O)[C@H](CCC(=O)O)NC(=O)CNC(=O)[C@H](Cc1ccc(OP(=O)(O)O)cc1)NC(C)=O)C(=O)N[C@@H](CCNS(=O)(=O)c1ccc(-c2ncc(-c3ccc(N(C)C)cc3)o2)cc1)C(=O)N[C@@H](C)C(N)=O` [peptide A, Ac-pTyr-Gly-Glu-Ile-Dab(Dapoxyl)-Ala-NH2] (Ac-[pY]GEI[Dab](X1)A-NH2): the “enhancement in fluorescence intensity relative to A in the absence of Lck-SH2 domain” value in data set [2] (t=0 min photolysis, 3 μM A, 5 μM GST-Lck-SH2, 32 μM peptide 4) came out at 4 fold.

Turning to “Ac-Gly-Gly-Gly-N(DMNB)Phe-coumarin [peptide 10]”, the “activity as chymotrypsin substrate after photolysis” value in data set [3] (photolysis 5, 10, 15, 20 min) is recorded as “increasing photolysis times converts increasing amounts of caged analogue 10 to the active substrate 9”. Moreover, the “activity as chymotrypsin substrate” value in [3] (without photolysis, 25 μM caged peptide) was “essentially inactive; also recorded: not hydrolyzed”.

Consider “Ac-Gly-Gly-Gly-Phe-coumarin (Ac-GGGF-coumarin; reading uncertain; also: printed as Ac-Gly-Gly-Gly-Phe-coumarin) [peptide 9]”, for which, in data set [3] (setting [11]), the Km was 6.3 ± 1.3 µM and the Vmax was determined as 7.2 µmol/min/mg. Besides, the “enhancement in fluorescence upon complete hydrolysis” value in data set [3] (λex=380 nm, λem=460 nm) is reported as ~6 fold.

Take “Ac-pTyr-Gly-Glu-Ile-Dab(Dapoxyl)-Ala-NH2 (A) (peptide)”: the fold increase in fluorescence upon binding in [4] came to 10 fold. In addition, in data set [5], the fold enhancement in fluorescence intensity relative to A in the absence of Lck-SH2 domain was found to be 4 fold.

Consider “H2N-Leu-Arg-Arg-Ala-N(DMNB)Ser-Leu-Gly-NH2 [peptide 12]”, for which, in data set [6] (in the absence of photolysis), the “activity as PKA substrate (phosphorylation)” value is on record as “fails to serve as a substrate; also recorded: not phosphorylated”. For the same compound, the “activity as PKA substrate after photolysis” value in data set [6] (photolysis 5-30 min) is listed as “generates the active substrate 11”.

As for PKA catalytic subunit, the “PKA-catalyzed phosphorylation, [γ-33P]ATP assay” value in [7] is on record as “In the absence of photolysis, peptide 12 fails to serve as a substrate”; in data set [8], “photolysis of 12 generates the active substrate 11 (as demonstrated by mass spectrometry) that, upon addition of PKA, furnishes the phosphorylated product”.

Regarding α-chymotrypsin, the “hydrolysis by chymotrypsin, continuous fluorescence assay” value in data set [9] was “the caged derivative 10 is essentially inactive as a chymotrypsin substrate”. In addition, in data set [10], the Km result is recorded as “Km=6.3±1.3 µM” and the maximal velocity (Vmax) result is recorded as “Vmax=7.2µmol/min-mg”.

Usually Kd stands for the equilibrium constant for the complex coming apart. A lower Kd goes with higher affinity. One may read the Km as the concentration of substrate that gives half-maximal velocity. By Vmax is commonly meant the top rate of the reaction or transport when substrate is in excess.

Values taken from patent publication US20100075297A1, “PHOTOSENSITIVE POLYPEPTIDE AND METHODS OF THEIR PRODUCTION AND USE” (priority 2006, published 2010).
